# Test results published in the supplement of paper PMC10567573.
# B1: FUT8 (parent)
# chain: YAHQPRTADEIPMEPGDIIGVAGN
# B2: DLC1 (parent)
# chain: AIQGISEKEKAEIEAKEACDWLRA
# Variants of: B1
# Experiment: protein stability index of a GFP-peptide fusion (GPS, HEK-293T) (PSI 1-6); higher = more stable
# Conditions: c terminus: a fixed tail appended
# 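Also: lentivirally expressed fusions sorted by FACS into six bins by GFP to DsRed ratio, PSI derived from sequencing read proportions per bin multiplied by bin number.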
row,Variant,protein stability index
1,YAHQPRTADEIPMEPGDIIGVAGP,3.18
2,YAHQPRTADEIPMEPGDIIGVAGD,4.71
3,YAHQPRTADEIPMEPGDIIGVAGS,4.17
4,YAHQPRTADEIPMEPGDIIGVAGV,3.61
5,YAHQPRTADEIPMEPGDIIGVAGF,2.46
6,YAHQPRTADEIPMEPGDIIGVAGY,3.21
7,YAHQPRTADEIPMEPGDIIGVAGM,3.21
8,YAHQPRTADEIPMEPGDIIGVAGI,2.93
9,YAHQPRTADEIPMEPGDIIGVAGA,3.95
10,YAHQPRTADEIPMEPGDIIGVAGE,4.59
11,YAHQPRTADEIPMEPGDIIGVAGK,3.62
12,YAHQPRTADEIPMEPGDIIGVAGL,2.77
13,YAHQPRTADEIPMEPGDIIGVAGW,2.66
14,YAHQPRTADEIPMEPGDIKGVAGN,4.42
15,YAHQPRTADEIPMEPGDIMGVAGN,4.54
16,YAHQPRTADEIPMEPGDIAGVAGN,4.67
17,YAHQPRTADEIPMEPGDISGVAGN,4.55
18,YAHQPRTADEIPMEPGDIHGVAGN,4.02
19,YAHQPRTADEIPMEPGDINGVAGN,4.72
20,YAHQPRTADEIPMEPGDIQGVAGN,4.25
21,YAHQPRTADEIPMEPGDIEGVAGN,5.21
22,YAHQPRTADEIPMEPGDILGVAGN,3.65
23,YAHQPRTADEIPMEPGDIWGVAGN,1.93

row,Variant,protein stability index
1,YAHQPRTADEIPMEPGDICGVAGN,4.22
2,YAHQPRTADEIPMEPGDIRGVAGN,4.4
3,YAHQPRTADEIPMEPGDITGVAGN,4.16
4,YAHQPRTADEIPMEPGDIGGVAGN,4.34
5,YAHQPRTADEIPMEPGDIVGVAGN,4.17
6,YAHQPRTADEIPMEPGDIPGVAGN,4.61
7,YAHQPRTADEIPMEPGDIYGVAGN,4.06
8,YAHQPRTADEIPMEPGDIFGVAGN,3.78
9,YAHQPRTADEIPMEPGDIDGVAGN,5.07
10,YAHQPRTADEIPMEPGDIIFVAGN,3.55
11,YAHQPRTADEIPMEPGDIIKVAGN,4.34
12,YAHQPRTADEIPMEPGDIIQVAGN,4.06
13,YAHQPRTADEIPMEPGDIINVAGN,4.29
14,YAHQPRTADEIPMEPGDIIMVAGN,4.11
15,YAHQPRTADEIPMEPGDIIPVAGN,4.47
16,YAHQPRTADEIPMEPGDIILVAGN,2.96
17,YAHQPRTADEIPMEPGDIIRVAGN,3.56
18,YAHQPRTADEIPMEPGDIIEVAGN,4.48
19,YAHQPRTADEIPMEPGDIITVAGN,4.37
20,YAHQPRTADEIPMEPGDIIHVAGN,4.17
21,YAHQPRTADEIPMEPGDIIAVAGN,4.26
22,YAHQPRTADEIPMEPGDIIDVAGN,4.59
23,YAHQPRTADEIPMEPGDIIYVAGN,3.37

row,Variant,protein stability index
1,YAHQPRTADEIPMEPGDIISVAGN,3.86
2,YAHQPRTADEIPMEPGDIIVVAGN,3.5
3,YAHQPRTADEIPMEPGDIIWVAGN,2.08
4,YAHQPRTADEIPMEPGDIICVAGN,3.73
5,YAHQPRTADEIPMEPGDIIIVAGN,3.26
6,YAHQPRTADEIPMEPGDEIGVAGN,4.19
7,YAHQPRTADEIPMEPGDLIGVAGN,4.05
8,YAHQPRTADEIPMEPGDCIGVAGN,3.01
9,YAHQPRTADEIPMEPGDTIGVAGN,4.2
10,YAHQPRTADEIPMEPGDNIGVAGN,4.03
11,YAHQPRTADEIPMEPGDAIGVAGN,3.83
12,YAHQPRTADEIPMEPGDWIGVAGN,3.11
13,YAHQPRTADEIPMEPGDDIGVAGN,4.95
14,YAHQPRTADEIPMEPGDHIGVAGN,3.71
15,YAHQPRTADEIPMEPGDPIGVAGN,4.7
16,YAHQPRTADEIPMEPGDQIGVAGN,4.07
17,YAHQPRTADEIPMEPGDFIGVAGN,3.55
18,YAHQPRTADEIPMEPGDVIGVAGN,4.47
19,YAHQPRTADEIPMEPGDMIGVAGN,4.21
20,YAHQPRTADEIPMEPGDYIGVAGN,3.63
21,YAHQPRTADEIPMEPGDKIGVAGN,4.56
22,YAHQPRTADEIPMEPGDRIGVAGN,4.45
23,YAHQPRTADEIPMEPGDSIGVAGN,3.79

row,Variant,protein stability index
1,YAHQPRTADEIPMEPGDGIGVAGN,3.84
2,YAHQPRTADEIPMEPTDIIGVAGN,3.86
3,YAHQPRTADEIPMEPDDIIGVAGN,4.61
4,YAHQPRTADEIPMEPSDIIGVAGN,3.87
5,YAHQPRTADEIPMEPCDIIGVAGN,3.5
6,YAHQPRTADEIPMEPIDIIGVAGN,3.44
7,YAHQPRTADEIPMEPLDIIGVAGN,3.73
8,YAHQPRTADEIPMEPADIIGVAGN,4.3
9,YAHQPRTADEIPMEPYDIIGVAGN,3.05
10,YAHQPRTADEIPMEPRDIIGVAGN,3.66
11,YAHQPRTADEIPMEPHDIIGVAGN,4.08
12,YAHQPRTADEIPMEPPDIIGVAGN,4.1
13,YAHQPRTADEIPMEPMDIIGVAGN,3.54
14,YAHQPRTADEIPMEPNDIIGVAGN,4.16
15,YAHQPRTADEIPMEPKDIIGVAGN,3.75
16,YAHQPRTADEIPMEPEDIIGVAGN,4.26
17,YAHQPRTADEIPMEPQDIIGVAGN,4.17
18,YAHQPRTADEIPMEPWDIIGVAGN,2.12
19,YAHQPRTADEIPMEPVDIIGVAGN,3.92
20,YAHQPRTADEIPMEPFDIIGVAGN,2.93

# Variants of: B2
# Experiment: as above
# Conditions: c terminus: a fixed tail appended
row,Variant,protein stability index
1,CIQGISEKEKAEIEAKEACDWLRA,4.09
2,DIQGISEKEKAEIEAKEACDWLRA,4.96
3,GIQGISEKEKAEIEAKEACDWLRA,4.58
4,FIQGISEKEKAEIEAKEACDWLRA,3.18
5,EIQGISEKEKAEIEAKEACDWLRA,4.74
